± gives the uncertainty stated by the source.
Test: amyloid nucleation score (Sup35N fusion, yeast selection) (log enrichment); library NNK1; higher = more nucleation; inactive = no reads after selection
How it was run: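 Psi-negative yeast expressed Sup35N fused to peptides of 20 random codons. They were induced 24 hours with 100 μM copper sulfate, grown 7 days at 30°C without adenine and uracil, and their plasmid inserts from input and output were Illumina-sequenced. The nucleation score is the DiMSum log enrichment of output over input reads, centred on the mode score of non-aggregating sequences. Sequences with under 100 input reads were excluded.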

| Substance | amyloid nucleation score |
| --- | --- |
| RIWLTFTSFIYDNVDRILVQ | -0.2 ± 0.67 |
| TNLLSLMMFDSKCIISEGIM | -0.567 ± 1.7 |
| RYSLYQSEWVGKSMRDLTAR | 1.03 ± 0.62 |
| ASRSSIPSG | -0.038 ± 1 |
| FTGNLSGDCIYYFLCVVLSM | 0.47 ± 0.65 |
| STFGPCEVLVVQVDGPAYHT | -0.37 ± 0.55 |
| MYSKIYIFNLEFLMTYWNAL | 1.92 ± 0.3 |
| VVNITYFPMVSVRLICGNVP | 6.569 ± 0.063 |
| IRKIS | -1.13 ± 1.7 |
| LFYPFTLHWVCCSWCLYEVR | 6.927 ± 0.056 |
| ERIRTHIRPIGCRRNLMVGW | 1.08 ± 0.63 |
| EKIQINQKG | 1.04 ± 0.66 |
| SSNLRKTFMSAMHVSSCMV | 0.396 ± 0.56 |
| QGIYTD | -0.921 ± 0.78 |
| INFARPVTILTYATFSVFGN | 4.9 ± 0.082 |
| PTEKYAESLMERTYFRAEMK | 0.315 ± 0.34 |
| PRSANCMCDYDRTAM | 0.316 ± 0.34 |
| ALKQPVYDGRGPRLGIGPRR | -0.124 ± 1 |
| YRRGKIAWGSTARHETVFIL | 0.336 ± 0.52 |
| CKCWFM | 0.307 ± 0.52 |
| ALPYVYRTLVNNLLIPSSGL | 1.02 ± 0.67 |
| TRSKMALGVQYHGLMQLYCR | 0.121 ± 0.31 |

| Substance | amyloid nucleation score |
| --- | --- |
| CTAQTSCILW | 0.2 ± 0.29 |
| SIANVSFW | 1.59 ± 0.18 |
| PKGIGGGCARTYRHRVRGSR | 0.184 ± 0.64 |
| TASNHVVLSHPDSGILGIRA | -0.278 ± 0.42 |
| RNFWF | 0.078 ± 0.34 |
| PVRQLERSNRLLKQGRRPLG | 0.512 ± 0.49 |
| VTYTEYCSVLLKTH | -1.81 ± 2.4 |
| LRARMCYRAPLRFR | -0.257 ± 1.7 |
| YSVLNINLQFRSSLLGAFYP | 3.75 ± 0.063 |
| CDWNLSNGGYGDHARCSGSA | 5.13 ± 0.069 |
| NSRSVVLMSVDFIILGYDKM | 3.56 ± 0.17 |
| IVLPVCDIITEAVLSCNSPG | 0.318 ± 0.33 |
| CNCVWRCWV | 1.14 ± 0.78 |
| LQTSRHFSLRWWCMYSWGNS | 1.41 ± 0.51 |
| NKKESGWY | -0.387 ± 0.97 |
| WDTDVLRDNWSQLRFLVSGR | -0.216 ± 0.21 |
| VLLTMWFNFFLLRNRGVVFS | 2.65 ± 0.08 |
| DCVSHAGQRGIMCRSGSLRF | -0.138 ± 0.64 |
| VTQSYDFKSLQIISIQN | 1.39 ± 0.12 |
| LLLLAIIDRYSIWK | -0.183 ± 0.41 |
| YLYCSVSVYRFERFRRNHSR | 0.051 ± 0.3 |
| KLMLLLSNSMNQRSDYPRFQ | -0.327 ± 0.44 |

| Substance | amyloid nucleation score |
| --- | --- |
| FVAASNYQAIPYCYRMIYVS | -0.102 ± 0.4 |
| RARCAVGS | -0.396 ± 1.5 |
| SFSSSSLYSLVCRYHSIRWA | 0.589 ± 0.28 |
| QNLVLVKPEVFGTSRLLCGH | 0.184 ± 0.53 |
| PGSGCNVFKL | -0.403 ± 0.25 |
| GDFLIPRARDQFYRFSGFND | 0.863 ± 0.46 |
| WLAHRNWLC | 0.103 ± 0.7 |
| SNCLDMTVTAW | inactive |
| QDVKSMCQPFMILMVVSGGL | -0.101 ± 0.65 |
| EVAFRVTCCSCWLISRNVGR | 2.77 ± 0.15 |
| GRLCPLRSKTSFNCY | -1.81 ± 1.3 |
| RLTDRHLLWIIMQELNGFLV | -1.09 ± 2.7 |
| ILFSNCSFLKSCYWFK | 7.25 ± 0.085 |
| VDDHDPKIGSMLPSIPNGVQ | -0.571 ± 0.42 |
| ICMILVPFMPT | 0.976 ± 1.1 |
| VLYTTLHGFYHNCWLWLRYS | -0.191 ± 0.42 |
| PRYRASVYYKDTRVLLLF | 0.512 ± 0.36 |
| RGAASKDLLMV | 0.082 ± 0.86 |
| LCLLIDNTYIVDVFFYVLSQ | 1.49 ± 0.32 |
| FLRSIKWVTVVS | 0.51 ± 0.28 |
| LDVSTRQRLVGVD | -0.2 ± 0.61 |
| ILVSYLSLPT | 0.802 ± 0.42 |

| Substance | amyloid nucleation score |
| --- | --- |
| PFVDFVVSRNYLRL | 0.572 ± 0.61 |
| IEVDPTNSKKSAPDTHLGSL | -0.001 ± 0.95 |
| YIYDIGGLTHATMRCTCR | 0.635 ± 0.49 |
| CCVNDFPTISPLSPLKRFDR | -0.302 ± 0.54 |
| IICSLW | 0.614 ± 0.34 |
| AYINSSDSRSDMSRNWY | 0.47 ± 1.1 |
| TTPIEAV | -0.178 ± 1.2 |
| TSFLWLLTFERFD | inactive |
| GSHTGEFRYVF | -0.83 ± 0.42 |
| IWSGATV | 0.445 ± 0.41 |
| GGPQLKVCSFGLFWWFIEVV | inactive |
| CGTIKLSPFWWSVEDHACWM | 0.828 ± 0.57 |
| SRMWMFFDCIISIINMAEDT | 7.449 ± 0.051 |
| LHPVLALPAFNVDRNSMPC | -0.335 ± 0.52 |
| TDIFSNISYQSGQPATIDYH | 0.176 ± 0.69 |
| DYSNERLTDGLRMGGTRVSG | 0.251 ± 0.54 |
| LMLPFVYS | 0.392 ± 0.37 |
| PHVFRFSFPTLILIGSFNFC | 3.14 ± 0.12 |
| HFYSRYRTPQTRS | -0.549 ± 0.64 |
| RTPHVERGTGIGLEISSTEV | 0.041 ± 0.97 |
| NSLCYVVWVVVMTVNYYHHW | 0.557 ± 0.5 |
